According to doi:10.1101/2022.04.26.489478:

Molecular target: GST-GABARAP (human), O95166
Experiment: microscopy-based on-bead protein-protein interaction assay
Conditions: remark: other sources report otherwise

GST-GABARAP (human), O95166, sequence (O95166 whole entry): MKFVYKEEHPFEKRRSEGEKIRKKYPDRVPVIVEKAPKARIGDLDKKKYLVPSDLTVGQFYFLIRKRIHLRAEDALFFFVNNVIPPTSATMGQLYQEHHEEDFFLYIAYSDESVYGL

B1: mCherry tagged HsC53^sAIM, Q96JB5 1-506 (natural protein)
chain: MEDHQHVPIDIQTSKLLDWLVDRRHCSLKWQSLVLTIREKINAAIQDMPESEEIAQLLSGSYIHYFHCLRILDLLKGTEASTKNIFGRYSSQRMKDWQEIIALYEKDNTYLVELSSLLVRNVNYEIPSLKKQIAKCQQLQQEYSRKEEECQAGAAEMREQFYHSCKQYGITGENVRGELLALVKDLPSQLAEIGAAAQQSLGEAIDVYQASVGFVCESPTEQVLPMLRFVQKRGNSTVYEWRTGTEPSVVERPHLEELPEQVAEDAIDAGDFGVEAVSEGTDSGISAEAAGIDAGIFPESDSKDPGGDGIDAGDDAVALQITVLEAGTQAPEGVARGPDALTLLEYTETRNQFLDELMELEIFLAQRAVELSEEADVLSVSQFQLAPAILQGQTKEKMVTMVSVLEDLIGKLTSLQLQHLFMILASPRYVDRVTEFLQQKLKQSQLLALKKELMVQKQQEALEEQAALEPKLDLLLEKTKELQKLIEADISKRYSGRPVNLMGTSL
In the case of B1, the percent recruited less than wild type C53 is reported as 78%.
